Experimental data reported in patent US20040161809.

Target: Staphylococcus aureus thioredoxin (Trx) (UniProt P0A0K6)
Sequence (P0A0K6 whole entry): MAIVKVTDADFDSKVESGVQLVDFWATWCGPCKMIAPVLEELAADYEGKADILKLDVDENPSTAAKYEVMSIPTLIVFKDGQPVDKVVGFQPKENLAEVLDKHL

“Staphylococcus aureus thioredoxin reductase (TrxB)” was tested, and the A412 (DTNB titration of free SH groups formed in insulin), complete reaction: NADPH + Trx + TrxB + insulin was 0.816 A412, the A412 (DTNB titration of free SH groups formed in insulin), control with NADPH omitted: Trx + TrxB + insulin was 0.15 A412 and the A412 (DTNB titration of free SH groups formed in insulin), control with Trx omitted: NADPH + TrxB + insulin was 0.493 A412.
